Test results as given in US20170015742A1 (published 2017).

Key:
VEGF-A = target: T1, VEGF-A (human, UniProt P15692 207-395); experiment: Biacore SPR; DVD-Ig captured on anti-human Fc, antigen injected
T1 construct: also called hVEGF165
Procedure: (§1) For example, approximately 9000 RU of goat anti-human Fc specific polyclonal antibody (Thermo Fisher Scientific Inc., Rockford, Ill.) diluted in 10 mM sodium acetate (pH 4.5) is directly immobilized across a CM5 research grade biosensor chip using a standard amine coupling kit according to manufacturer's instructions and procedures at 25 μg/ml. Unreacted moieties on the biosensor surface were blocked with ethanolamine. For kinetic analysis, rate equations derived from the 1:1 Langmuir binding model were fitted simultaneously to multiple antigen injections (using global fit analysis) with the use of Scrubber 2 (BioLogic Software), Biacore Biaevaluation 4.0.1 software or Biacore T100 Evaluation software. Purified antibodies or DVD-Ig molecules were diluted in running buffer for capture across goat anti-human Fc reaction surfaces. Antibodies or DVD-Ig molecules to be captured as a ligand (1 μg/ml) were injected over reaction matrices at a flow rate of 10 μl/minute. During the assay, all measurements were referenced against the capture surface alone (i.e., with no captured antibody or DVD-Ig molecule). […] The equilibrium dissociation constant KD (M) of the reaction between antibodies and the target antigen was then calculated from the kinetic rate constants by the following formula: KD=Koff/Kₒₙ. Binding was recorded as a function of time and kinetic rate constants were calculated.

PDGF-BB = target: T2, PDGF-BB (human, UniProt P01127 82-190, limits assumed); experiment: as above
T2 construct: also called human PDGF-BB; hPDGF-BB
T2 sequence (P01127 82-190 limits assumed): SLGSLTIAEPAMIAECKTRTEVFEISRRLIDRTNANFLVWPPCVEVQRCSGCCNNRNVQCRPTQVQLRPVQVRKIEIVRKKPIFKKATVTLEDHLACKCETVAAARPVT
Procedure: as §1

T1 sequence (P15692 other isoform, or with tags, fused parts or gaps limits assumed): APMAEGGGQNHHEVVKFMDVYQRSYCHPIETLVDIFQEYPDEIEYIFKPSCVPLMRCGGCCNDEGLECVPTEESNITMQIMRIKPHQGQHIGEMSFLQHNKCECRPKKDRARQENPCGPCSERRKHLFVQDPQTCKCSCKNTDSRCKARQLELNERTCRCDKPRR

Kd (VEGF-A) [pM]	kon (VEGF-A) [M⁻¹ s⁻¹]	Kd (PDGF-BB) [pM]	kon (PDGF-BB) [M⁻¹ s⁻¹]	Binder
6.6	4.7e+06	0.74	1.6e+07	4G8.5_GS_CL-33675 (PR-1611291) (bispecific antibody, human IgG1, kappa, L234A L235A, DVD-Ig: outer hBDB-4G8.5 (VEGF), inner CL-33675 (PDGF), linkers GS-H10/GS-L10(dR); Human IgG1 L234A, L235A, H435A with kappa) heavy: EIQLVQSGSELKKPGASVKVSCKASGYTFTNYGMYWVRQAPGQGLEYMGWINTETGKPTYADDFKGRFVFSLDTSVSTAYLQISSLKAEDTAVYFCARTNYYYRSYIFYFDYWGQGTMVTVSSGGGGSGGGGSEVTLRESGPALVKPTQTLTLTCTFSGFSLSTYGMGVGWIRQPPGKALEWLANIWWDDDKYYNPSLKNRLTISKDTSKNQVVLTMTNMDPVDTATYYCARIESSGPKYSFDYWGQGTMVTVSSASTKGPSVFPLAPSSKSTSGGTAALGCLVKDYFPEPVTVSWNSGALTSGVHTFPAVLQSSGLYSLSSVVTVPSSSLGTQTYICNVNHKPSNTKVDKKVEPKSCDKTHTCPPCPAPEAAGGPSVFLFPPKPKDTLMISRTPEVTCVVVDVSHEDPEVKFNWYVDGVEVHNAKTKPREEQYNSTYRVVSVLTVLHQDWLNGKEYKCKVSNKALPAPIEKTISKAKGQPREPQVYTLPPSREEMTKNQVSLTCLVKGFYPSDIAVEWESNGQPENNYKTTPPVLDSDGSFFLYSKLTVDKSRWQQGNVFSCSVMHEALHNAYTQKSLSLSPGK light: ATQLTQSPSLSASVGDRVTITCRASESVSTHMHWYQQKPGKQPKLLIYGASNLESGVPSRFSGSGSGTDFTLTISSLQPEDFATYFCQQSWNDPFTFGQGTKLEIKGGSGGGGSGGEIVLTQSPGTLSLSPGERATLSCRASSGSIWYSFVSWYQQKPGQAPRLLIYADDQRASGIPDRFSGSGSGTDFTLTISRLEPEDFAVYYCQSYGINIDVVFGGGTKVEIKRTVAAPSVFIFPPSDEQLKSGTASVVCLLNNFYPREAKVQWKVDNALQSGNSQESVTEQDSKDSTYSLSSTLTLSKADYEKHKVYACEVTHQGLSSPVTKSFNRGEC
1.4	1.2e+07	12	4.5e+07	CL-34565_GS_3E2.1 (PR-1613185) (bispecific antibody, human IgG1, kappa, L234A L235A, DVD-Ig: outer CL-34565 (VEGF), inner hBFU-3E2.1 (PDGF), linkers GS-H10/GS-L10(dR); Human IgG1 L234A, L235A, H435A with kappa) heavy: EVQLVQSGSELKKPGASVKVSCKASGYTFTDYGMYWVRQAPGQGLEWMGWIDTETGDPTYADDFKGRFVFSLDTSVSTAYLQISSLKAEDTAVYYCARTNYYYRNYMFYFDYWGQGTMVTVSSGGGGSGGGGSEVQLVQSGAEVKKPGSSVKVSCKASGYTFTESYMYWVKQAPGQGLELIGRIDPEDGSTDYVEKFKNKATLTADKSTSTAYMELSSLRSEDTAVYFCARFGARSYFYPMDAWGQGTTVTVSSASTKGPSVFPLAPSSKSTSGGTAALGCLVKDYFPEPVTVSWNSGALTSGVHTFPAVLQSSGLYSLSSVVTVPSSSLGTQTYICNVNHKPSNTKVDKKVEPKSCDKTHTCPPCPAPEAAGGPSVFLFPPKPKDTLMISRTPEVTCVVVDVSHEDPEVKFNWYVDGVEVHNAKTKPREEQYNSTYRVVSVLTVLHQDWLNGKEYKCKVSNKALPAPIEKTISKAKGQPREPQVYTLPPSREEMTKNQVSLTCLVKGFYPSDIAVEWESNGQPENNYKTTPPVLDSDGSFFLYSKLTVDKSRWQQGNVFSCSVMHEALHNAYTQKSLSLSPGK light: EIVLTQSPATLSLSPGERATLFCRASQSVSNHMHWYQQKPGQAPRLLIYGASILESGVPARFSGSGSGTDFTLTISSLEPEDFAVYYCQQSWYDPITFGQGTKLEIKGGSGGGGSGGETVLTQSPATLSLSPGERATLSCRASESVSTLMHWYQQKPGQQPRLLIYGASNLESGVPARFSGSGSGTDFTLTISSLEPEDFAVYFCQQSWNDPWTFGGGTKVEIKRTVAAPSVFIFPPSDEQLKSGTASVVCLLNNFYPREAKVQWKVDNALQSGNSQESVTEQDSKDSTYSLSSTLTLSKADYEKHKVYACEVTHQGLSSPVTKSFNRGEC
